Patent publication US20230295324A1 (published 2023)

How the values were obtained:
[1] = target: T1, human CD40 on CHO-K1 cells (CHO-K1/hu CD40) (human, UniProt P25942 21-277); test: flow cytometry on CHO-K1/hu CD40 cells
T1 construct: whole, on cells
Procedure: This example is intended to investigate the specificity of in vitro binding of anti-human OX40 HCAb monoclonal antibodies by detecting 3 receptors of the TNF tumor necrosis factor receptor superfamily and ICOS by flow cytometry. The antibody binding assay at the cellular level was performed using a CHO-K1 cell strain overexpressing human OX40 (CHO-K1/hu OX40), a CHO-K1 cell strain overexpressing human CD40 (CHO-K1/hu CD40, Beijing KYinno, #KC-1286), a CHO-K1 cell strain overexpressing human 4-1BB (CHO-K1/hu 4-1BB, Genscript, #M00538) and an HEK293 cell strain overexpressing human ICOS (HEK293T/ICOS, Genscript, #KC-0210). Briefly, these cells were digested and resuspended in F12K or DMEM complete medium, and the cell density was adjusted to 1×10⁶ cells/mL. The cells were seeded in a 96-well V-bottom plate at 100 μL/well, and centrifuged, and then the supernatant was discarded. Then, the test antibodies diluted in a 3-fold gradient were added at 100 μL/well. The cells were incubated at 4° C. for 1 h away from light. Thereafter, the cells in each well were rinsed twice with 100 μL of pre-cooled PBS, and centrifuged at 500 g at 4° C. for 5 min, and then the supernatant was discarded. […] Finally, the cells in each well were resuspended in 200 μL of pre-cooled PBS, and the fluorescence signal values were read using NovoCyte flow cytometer (ACEA Biosciences).

[2] = target: T2, human OX40 protein (Acro biosystem, #OX0-H5224) (human, UniProt P43489 29-216); test: BLI, antibody on ProA sensor, 1:1 global fit
T2 construct: Bought recombinant protein
T2 sequence (looked up): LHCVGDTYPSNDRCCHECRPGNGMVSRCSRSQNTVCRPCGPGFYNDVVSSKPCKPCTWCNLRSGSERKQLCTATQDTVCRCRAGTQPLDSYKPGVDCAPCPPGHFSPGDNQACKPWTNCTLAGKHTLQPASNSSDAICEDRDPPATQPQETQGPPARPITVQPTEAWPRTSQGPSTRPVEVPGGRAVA
Procedure: (§1) The binding kinetics between the antigen and the antibody was analyzed by the Biolayer Interferometry (BLI) technique using an Octet Red 96e molecular interaction analyzer (Fortebio).
(§2) The association and dissociation signals between the OX40 antibodies and OX40 proteins were recorded by Octet Red 96 in real time. When data analysis was performed using Octet Data Analysis software (Fortebio, version 11.0), 0 nM was used as a reference hole, and reference subtraction was performed; the “1:1 Global fitting” method was selected to fit the data, and the kinetics parameters of the binding of antigens to antigen-binding proteins were calculated, with kon(1/Ms) values, kdis(1/s) values and KD(M) values obtained.

[3] = target: T3, cynomolgus monkey OX40 protein (Novoprotein, #CB17) (cynomolgus monkey); test: BLI, antibody on ProA sensor, 1:1 global fit
T3 construct: Bought recombinant protein; also called cyno OX40
Procedure: as §1, §2

[4] = target: T4, human OX40 on cells (CHO-K1/hu OX40) (human, UniProt P43489 29-277); test: FACS, blocking of biotin-human OX40L on CHO-K1/hu OX40 cells
T4 construct: whole, on cells; Also used here for OX40 on the HEK293/OX40/NF-kb reporter cells and on human T cells in the functional assays; also called CHO-K1/OX40; human OX40 cells
T4 sequence (looked up): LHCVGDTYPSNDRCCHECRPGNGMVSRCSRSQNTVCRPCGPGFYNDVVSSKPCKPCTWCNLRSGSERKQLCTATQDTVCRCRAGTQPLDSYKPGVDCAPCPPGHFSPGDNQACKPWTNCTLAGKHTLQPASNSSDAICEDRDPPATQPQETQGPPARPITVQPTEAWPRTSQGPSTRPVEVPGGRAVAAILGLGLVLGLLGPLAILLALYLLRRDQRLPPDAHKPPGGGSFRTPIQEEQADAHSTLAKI

T1 sequence (P25942 21-277): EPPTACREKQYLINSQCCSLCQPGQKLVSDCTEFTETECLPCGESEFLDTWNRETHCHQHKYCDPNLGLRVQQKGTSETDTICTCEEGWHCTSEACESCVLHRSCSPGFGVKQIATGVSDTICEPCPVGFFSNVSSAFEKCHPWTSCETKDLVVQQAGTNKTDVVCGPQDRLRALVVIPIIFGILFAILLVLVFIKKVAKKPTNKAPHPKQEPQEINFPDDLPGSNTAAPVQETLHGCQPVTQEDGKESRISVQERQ

B1: PR002067 (antibody, human IgG1, V domains shown)
VH: EVQLLESGGGLVQPGGSLRLSCAASGFTFSSYAMSWVRQAPGKGLEWVSAISGRGGSTFYADSVRGRFTISRDNSKNTLYLQMNSLRAEDTAMYYCVDGTTGTTDVDYWGQGTLVTVSS
notes: no light chain; also called anti-OX40 HCAb antibody
[1]
  binding result: no binding
[2]
  Kd: 4.16 nM
  koff: 0.000156 s⁻¹
  kon: 37400 M⁻¹ s⁻¹
[3]
  Kd: 19.2 nM
  koff: 0.000475 s⁻¹
  kon: 24800 M⁻¹ s⁻¹
[4]
  IC50: 166 nM
  Maximum inhibition rate (%): 64%
